Laboratory results taken from US20250313621A1 (NXERA PHARMA UK, published 2025).

T1: Wildtype human PAR2 expressed on cells (human, UniProt P55085 37-397)
T1 sequence: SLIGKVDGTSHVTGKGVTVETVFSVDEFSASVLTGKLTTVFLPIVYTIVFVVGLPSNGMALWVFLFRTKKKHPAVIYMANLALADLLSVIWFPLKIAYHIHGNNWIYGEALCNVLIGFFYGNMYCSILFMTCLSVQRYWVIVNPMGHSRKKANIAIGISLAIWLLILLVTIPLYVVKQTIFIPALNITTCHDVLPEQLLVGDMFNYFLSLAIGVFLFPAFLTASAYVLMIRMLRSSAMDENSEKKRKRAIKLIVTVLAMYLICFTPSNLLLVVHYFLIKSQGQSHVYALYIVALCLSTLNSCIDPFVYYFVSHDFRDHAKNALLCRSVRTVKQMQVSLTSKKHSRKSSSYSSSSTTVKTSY

T2: Wildtype human PAR 1 (human, UniProt P25116 42-425)
T2 sequence: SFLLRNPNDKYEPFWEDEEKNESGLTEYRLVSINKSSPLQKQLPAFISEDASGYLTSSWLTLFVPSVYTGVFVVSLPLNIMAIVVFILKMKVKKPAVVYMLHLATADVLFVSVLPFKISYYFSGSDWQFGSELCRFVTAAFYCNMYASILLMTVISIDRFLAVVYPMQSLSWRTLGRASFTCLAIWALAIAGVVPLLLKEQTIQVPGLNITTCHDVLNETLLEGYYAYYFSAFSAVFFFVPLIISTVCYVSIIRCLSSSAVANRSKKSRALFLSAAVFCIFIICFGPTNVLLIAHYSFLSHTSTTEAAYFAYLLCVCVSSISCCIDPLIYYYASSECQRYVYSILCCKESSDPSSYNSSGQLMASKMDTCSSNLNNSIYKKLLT

T3: Soluble PAR2 StaR (recombinant human PAR2 StaR protein in detergent, construct not stated) (human, UniProt P55085 37-377, limits assumed)
T3 construct: also called purified PAR2
T3 sequence: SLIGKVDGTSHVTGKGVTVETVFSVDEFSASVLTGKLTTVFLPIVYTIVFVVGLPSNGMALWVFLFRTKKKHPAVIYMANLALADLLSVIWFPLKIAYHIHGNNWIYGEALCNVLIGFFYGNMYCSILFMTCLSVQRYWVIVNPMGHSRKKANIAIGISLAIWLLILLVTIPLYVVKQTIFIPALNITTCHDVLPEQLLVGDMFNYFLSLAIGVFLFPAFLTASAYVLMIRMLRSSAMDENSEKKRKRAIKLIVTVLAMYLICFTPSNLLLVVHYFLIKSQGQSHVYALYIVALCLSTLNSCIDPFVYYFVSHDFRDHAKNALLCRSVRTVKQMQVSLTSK

T4: PAR2-3: P157: 1-377, glycosylated, pBacMamHisStrepII, full length (human, UniProt P55085 26-377)
T4 construct: detergent-solubilised analyte in SPR, or on infected cells in flow cytometry; also called FL-N PAR2 StaR; FL-N StaR; not shown: C-terminal StrepII and deca-histidine tags
T4 sequence: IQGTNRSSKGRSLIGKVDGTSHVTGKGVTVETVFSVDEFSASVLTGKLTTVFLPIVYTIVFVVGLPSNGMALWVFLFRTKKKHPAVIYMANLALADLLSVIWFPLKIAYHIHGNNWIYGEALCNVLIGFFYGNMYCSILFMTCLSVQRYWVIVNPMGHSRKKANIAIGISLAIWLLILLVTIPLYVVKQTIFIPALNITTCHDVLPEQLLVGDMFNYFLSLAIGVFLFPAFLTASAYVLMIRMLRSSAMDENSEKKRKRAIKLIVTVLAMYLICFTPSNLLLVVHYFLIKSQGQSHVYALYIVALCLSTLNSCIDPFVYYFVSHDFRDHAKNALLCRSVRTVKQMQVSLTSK

B1: Y022870 (antibody, human IgG1, lambda, V domains shown)
VH: EVQLLESGGGLVQPGGSLRLSCAASGFSFSRYAITWVRQAPGKGLEWVSTISALGLETYYAESVRGRFTISRDNSKNTLYLQMNSLRAEDTAVYYCARGFHYTHSGKRYYYPFDIWGQGTLVTVSS
VL: QSALTQPASVSGSPGQSITISCTGTSSDVGSYNLVSWYQQHPGKAPKLMIYEGSKRPSGVSNRFSGSKSGNTASLTISGLQAEDEADYYCSQYATFIAFAVFGGGTKLTVLG
notes: also called Y22870
B2: Y022877 (antibody, human IgG1, lambda, V domains shown)
VH: EVQLLESGGGLVQPGGSLRLSCAASGFTFSRYAMTWVRQAPGKGLEWVSTISGLGQEAYYAGSVKGRFTISRDNSKNTLYLQMNSLRAEDTAVYYCARGFHYTHSGKRYYYPFDIWGQGTLVTVSS
VL: QSALTQPASVSGSPGQSITISCTGTSSDVGSYNLVSWYQQHPGKAPKLMIYEGSKRPSGVSNRFSGSKSGNTASLTISGLQAEDEADYYCSQYATFIAFAVFGGGTKLTVLG
notes: also called Y22877
B3: Y022883 (antibody, human IgG1, lambda, V domains shown)
VH: EVQLLESGGGLVQPGGSLRLSCAASGFSFTRYAISWVRQAPGKGLEWVSVISGHGSEANYAESVKGRFTISRDNSKNTLYLQMNSLRAEDTAVYYCARGFHYTHSGKRYYYPFDIWGQGTLVTVSS
VL: QSALTQPASVSGSPGQSITISCTGTSSDVGSYNLVSWYQQHPGKAPKLMIYEGSKRPSGVSNRFSGSKSGNTASLTISGLQAEDEADYYCSQYATFIAFAVFGGGTKLTVLG
notes: also called Y22883; Y02283

How the values were obtained:
[1] = target: T1, Wildtype human PAR2 expressed on cells; assay: cell-based or functional assay
[2] = target: T1, Wildtype human PAR2 expressed on cells; assay: cell-based or functional assay; remark: listed apart in the source
Wildtype human PAR 1 = target: T2, Wildtype human PAR 1; assay: cell-based or functional assay
[3] = target: T3, Soluble PAR2 StaR (recombinant human …); assay: SPR Biacore T200; IgG captured, PAR2 as analyte; 25 C, 30 min dissociation
Experimental: The assay of PAR2 interaction with anti-PAR2 antibodies was carried out using a Biacore T200 instrument (GE Healthcare). Anti-human IgG antibody (Human Antibody Capture Kit, GE Healthcare) was immobilised by amine coupling in the target and reference flow cells of sensor chip CM3 (GE Healthcare) to a surface density of 2700 to 3000 resonance units (RU). Immobilisation was carried out at 25° C. in HBS-EP+buffer (GE Healthcare). The buffer was then changed to 50 mM HEPES, pH 7.5, 150 mM NaCl, 0.02% LMNG, 0.002% CHS for the PAR2-antibody interaction assay which was carried out at either 25 or 37° C. Each cycle of the assay began with antibody capture in the target flow cell to a level of 400 to 450 RU. PAR2 was then injected over target and reference flow cells at three concentrations, 5 min each, followed by 30-min dissociation. The surface was then regenerated with a solution provided in the kit (Human Antibody Capture Kit, GE Healthcare). With every antibody tested the first cycle was a blank (three injections of the running buffer) and the second a series of 50, 100, and 200 nM PAR2 injections.

[4] = target: T3, Soluble PAR2 StaR (recombinant human …); assay: SPR Biacore T200; IgG captured, PAR2 as analyte; 25 C, 90 min dissociation
[5] = target: T4, PAR2-3: P157: 1-377, glycosylated, …; assay: SPR (table head: Octet); IgG captured via Fc, FL-N PAR2 StaR as analyte; koff at the lower assay limit (minimum 2.00E-05 reported)
Experimental: For all eleven IgG1f_AEASS, affinities to human PAR2 were determined by SPR. The IgGs were captured via their Fc-fragment and detergent (LMNG/CHS) solubilised FL-N PAR2 StaR was used as analyte in solution. 50 mM HEPES pH 7.5, 150 mM NaCl, 0.02% LMNG was used as assay buffer. To minimize artefacts introduced by non-specific interaction of FL-N PAR2 StaR with the sensors, the CM3 sensors were used as basis to immobilize a high density of anti-hu-Fc capture antibody (BR-1008-39, GE Healthcare). IgGs were captured with relatively high levels of approximately 500 RU to achieve a higher ratio of specific to non-specific binding (while still maintaining conditions suitable for kinetic characterization). Affinities ranged from 6.5 nM to 130 pM. The koff values of the best candidates were at the lower assay limit. A minimum koff of 2.00E-05 s⁻¹ was reported (corresponding to 3% dissociation in 1500 s).

Binder | % Max Inhibition, Bovine Trypsin challenge, IP-One [1] [%] | AP IC50, HT-29 FLIPR calcium mobilisation [2] [nM] | Trypsin IC50, HT-29 FLIPR calcium mobilisation [2] [nM] | Human PAR1 SFLLR IC50, IP-One (Wildtype human PAR 1) [µM] | SFLLR fold inhibition, human PAR1, IP-One (Wildtype human PAR 1) [fold] | Kd [3] [nM] | koff [3] [s⁻¹] | kon [3] [M⁻¹ s⁻¹] | t½ [3] [h] | Kd [4] [nM] | koff [4] [s⁻¹] | kon [4] [M⁻¹ s⁻¹] | t½ [4] [h] | koff [5] [s⁻¹]
B1 | 10 | 17.8 | 40 | > 3.16 | 0 | 0.43 | 1.2e-05 | 28000 | 16.1 | 0.21 | 7e-06 | 34000 | 27.6 | ≤ 2e-05
B2 | 58 | 44.3 | 49 | > 3.16 | 0 | 0.23 | 5.1e-06 | 22000 | 37.9 | 0.3 | 8e-06 | 27000 | 24.1 | 2e-05
B3 | 48 | 42 | 47 | > 3.16 | 0 | 0.2 | 8.1e-06 | 40000 | 23.7 | 0.4 | 1.2e-05 | 30000 | 16.2 | 2e-05
